In the series the test system is HEK293 cells. The format is cell-based, human. As to conditions: luminescence from secreted Gluc in supernatant 24 hours after transfection of HEK293 cells; circular RNA encoding Gluc with the named IRES (UTR truncated to 675 nt).

B1: Aichivirus rat08 (nucleic acid, listed as Aichivirus sp.)
DNA: TACTCCATTCAGCTTCTTCGGAACCTGTTCGGAGGAATTAAACGGGCACCCACTTTCCTGTCCTCTCCCCTTTTCTGTAACTCCAAGTGTGTGCTCGTAATCTTGACTCCCGCGGATTGACCGCTCCGCTGGTGAACAAACTGCTAGGTCATCTCCTCCCCACCCTTGGGCGTCCTTCCGGGCGTCCACACCCTCCCCCCAGCCTGACGTGTCACAGGCTGTACAAAGACCCCGCGAAAGCTGCTAACGTGGCAATTGTGGGTCCCCCCTTTGTAAAGGAACCGAGTCTTTCTCCCTTAAGGCTAGACCCCTGTGTGAATTCACAGGTGGCAACTAGTGGTTCCACTGCATGCTCCCGACCTCGGCCGCGGAGTGCTGTTCCCCAAGTCGTAACACTGACCTTCACTTATGTGCCTGGCAAGCATATCTGAGAAGATGTTCCGCTGTGGCTGCCAAACCTGGTAACAGGTGCCCCAGTGTGCGTAGTCTTCTTCCGTCTTCGGACGGTAGGTGTTAGGTAAAGATGCGGCGTAAGGTTCAAGTGCCAACGCCCTGGAAGGGATGACCCTTCTACTGCCCTAGGAATGCCGCGCAGGTACCCCAGGTTCGCCTGGGATCTGAGCGCGGGCTAATTGTCTACGGGTAGTTTCATTTCCCTCTTCTTCCACTGGCATC
Take B1: the Expression is 3.51E+07.

B2: Aichivirus DVI2321 (nucleic acid, listed as Aichivirus sp.)
DNA: GCTTCTTCGGAACCTGTTCGGAGGAATTAAACGGGCACCCATACACCCCCACCCCCTTTTCTGCAACTTAAGTATGTGTGCTCGTAATCTTGACTCCCACGGAATGGATCGATCCGCTGGAGAACAAACTGCTAGATCCACATCCTCCCTTCCCCTGGGAGGACCCCGGTCCTCCCACATCCTCCCCCCAGCCTGACGTATCACAGGCTGTGTGAAGTCCCCGCGAAAGCTGCTCACGTGGCAATTGTGGGTCCCCCCTTCATCAAGACACCAGGTCTTTCCTCCTTAAGGCTAGCCCCGATGTGTGAATTCACATTGGGCAACTAGTGGTGTCACTGTGCGCTCCCAATCTCGGCCGCGGAGTGCTGTTCCCCAAGCCAAACCCCTGGCCCTTCACTATGTGCCTGGCAAGCATATCTGAGAAGGTGTTCCGCTGTGGCTGCCAGCCTGGTAACAGGTGCCCCAGTGTGCGTAACCTTCTTCCGTCTCCGGACGGTAGTGATTGGTTAAGATTTGGTGTAAGGTTCATGTGCCAACGCCCTGTGCGGGATGAAACCTCTACTGCCCTAGGAATGCCAGGCAGGTACCCCACCTTCGGGTGGGATCTGAGCCTGGGCTAATTGTCTACGGGTAGTTTCATTTCCAATTCTTTTATGTCGGAGTC
In turn, B2 registered an Expression of 6.63E+07.

B3: Porcine Kobuvirus GS2 (nucleic acid, listed as Kobuvirus sp.)
DNA: TTTGAAAAGGGGGTGGGGGGGCCTCGGCCCCCTCACCCTCTTTTCCGGTGGCCATTCGCCCGGGCCACCGTTACTCCACTCCACTCCTTCGGGACTGGTTTGGAGGAACACAACAGGGCTTCCCATCCCTGTTTACCCTTTATTCCATCATCCTTTCCCCAAGTTTACCCTATCCACACCCCACTGACTGACTCCTTTGGATTTTGACCTCAGAATGCCTATTTGACCTCCCACTCGCCTCTCCCTTTTCGGATTGCCGGTGGTGCCTGGCGGAAAAAGCACAAGTGTGTTGCAGGCTACCAAACTCCTACCCGACAAAGGTGCGTGTCCGCGTGCTGAGTAATGGGATAGGAGATGCCTACAACAGGCTCGCCCATGAGTAGAGCATGGACTGCGGTGCATGTGACTTCGGTCACCACGGGCATAGCATTGCTCACCCGTGAATCAAGTCATCGAGATTTCTCTGACCTCTGAAGTGCACTGTGGTTGCGTGGCTGGGAATCCACGCTTGACCATGTACTGCTTGATAGAGTCGCGGCTGGCCGACTCATGGGTTAAAGTCAGTTGACAAGACAC
B3 registered an Expression of 44200000.

B4: Porcine pestivirus isolate Bungowannah (nucleic acid, listed as Pestivirus sp.)
DNA: TACGCGGGGTATAACGACAGTAGTTCAAGTGTCGTTATGCATCATTGGCCATAACAAATTATCTAATTTGGAATAGGGACCTGCGACCTGTACGAAGGCCGAGCGTCGGTAGCCATTCCGACTAGTAGGACTAGTACAAATAGGTCAACTGGTTGAGCAGGTGAGTGTGCTGCAGCGGCTAAGCGGTGAGTACACCGTATTCGTCAACAGGTGCTACTGGAAAGGATCACCCACTAGCGATGCCTGTGTGGACGAGGACATGTCCAAGCCAATGTTATCAGTAGCGGGGGTCGTTACTGAGAAAGCTGCCCAGAATGGGTAGTTGCACATACAGTCTGATAGGATGCCGGCGGATGCCCTGTATTTTGACCAGTATAAATATTATCCGTTGTAAAGCAT
For B4, the Expression was found to be 1.10E+07.

B5: Porcine pestivirus 1 (nucleic acid, listed as Pestivirus sp.)
DNA: GCAGATATCGGTGGTGGACCTGGGGGTTGGGCTCACCGTGCCCCTTCATGGGGTAGACCTCACTGCTTGATAGAGTGCCGGCGGATGCCTCAGGTAAGAGTATAAAATCCGTTGTTCACTAAC
modifications: chemistry not fully specified; the letters are possibly those of the target site
B5 showed an Expression of 9.46E+04.

B6: Kobuvirus SZAL6: "Kobuvirus SZAL6 IRES", one of the selected IRES sequences, SEQ ID NOs: 348-389 (nucleic acid, listed as Kobuvirus sp.)
DNA: TTTCACACCCTCTTTTCCGGTGGTCCGGACCCAGACCACCGTTACTCCATTCAGCTACTTCGGTACCTGTTCGGAGGAATTAAACGGGCACCCTACCCAAGGGTTACATGGGACCATATTCCTCCTCCCCTGTAACTTTAAGTTTTGTGCCCGTATTCTTGACTCCAGGCGGATGTTGTGTCGCCCGTCCTGTGAACAAACAGCTAGACACTTTCCTCCCCTCCCTCTGGGCTGCTCCGGCAGTCCACTCCCTCCCCCCAGCGTAACATGCCCCGCTGGAGTGATGCACCTGGAAGTCGTGGACGTGGGTTAGTAACTTCGGTGAAAACCCACTATAATGACAACTGGTTGACCCCCACACTCAAAGGACTCGAGTCTTTCTCCCTTAAGGCTAGCCCGGCCACATGAATTTGCAGCTGGCAACTAGTGAGTCCACCATGTCCCGCAACCTCGGCTGCGGAGTGCTGTTCCCCAAGCGTATGCCTTCCTTCTGTAAGAGTGCGCCTGGCAAGCACATCTGAGAAGTCGTTCCGCTGCGTCGTGCCAACCTGGCGACAGGTGACCCAGTGTGCGTAGACTTCTTCCGGATTCGTCCGGCTCTTCTCTAGGAAACATGCGTGTAAGGTTCATGTGCCAAAGCCCTGCGCGCGGTGTTCTTCTACTGCCCTAGGAATGTGCCGCAGGTACCCCTACTTCGGTAGGGATCTGAGCGGTAGCTAATTGTCTACGGGTAGTTTCATTTCCATCTTCTCTTCAGGTCGACATC
B6: the Expression is 98850000.

B7: Aichivirus DVI2169 (nucleic acid, listed as Aichivirus sp.)
DNA: TACTCCATTCAGCTTCTTCGGAACCTGTTCGGAGGAATTAAACGGGCACCCATACACCCCCACCCCCTTTTCTGCAACTTAAGTATGTGTGCTCGTAATCTTGACTCCCACGGAATGGATCGATCCGCTGGAGAACAAACTGCTAGATCCACATCCTCCCTTCCCCTGGGAGGACCCCGGTCCTCCCACATCCTCCCCCCAGCCTGACGTATCACAGGCTGTGTGAAGTCCCCGCGAAAGCTGCTCACGTGGCAATTGTGGGTCCCCCCTTCATCAAGACACCAGGTCTTTCCTCCTTAAGGCTAGCCCCGATGTGTGAATTCACATTGGGCAACTAGTGGTGTCACTGTGCGCTCCCAATCTCGGCCGCGGAGTGCTGTTCCCCAAGCCAAACCCCTGGCCCTTCACTATGTGCCTGGCAAGCATATCTGAGAAGGTGTTCCGCTGTGGCTGCCAGCCTGGTAACAGGTGCCCCAGTGTGCGTAACCTTCTTCCGTCTCCGGACGGTAGTGATTGGTTAAGATTTGGTGTAAGGTTCATGTGCCAACGCCCTGTGCGGGATGAAACCTCTACTGCCCTAGGAATGCCAGGCAGGTACCCCACCTTCGGGTGGGATCTGAGCCTGGGCTAATTGTCTACGGGTAGTTTCATTTCCAATTCTTTTATGTCGGAGTC
B7 yielded an Expression of 2.98E+06.

B8: Symapivirus A (nucleic acid)
DNA: TTGGGAAATCCCCAATGCTTCTTTCAACACCGCCTGACTATGCGGTGGCGCTTCGGCTCAAACAACTAGTCACTTCCCCCTCTTAACTACTACCCAAGACTTCTAACTACCCTTACCTACTTATTTGTCTAAATTTCAAACTTTTATTCTCACGCGTCTTATAAACATCTTTTCTATTTGTTATGGTATGTTTTGTGATTTGTGTGGTGTATTTCATTTAATGGGATCTAGTGGACCGTGCCCCGGTTGGGTATCCGCTCCCTTTAAATGTTTGCAAGCACTCTTGACATTATAACCTATCATTTAGTTTACTTGTTTGTATGATCGTATTTCTGAATCGTAACATTTATGCAATTCTTTCTCGCCGAGACTTGTCTAGGAGATAAAGTTCCTGCATATTTAGTGTTACGGTTGTATAATGGAGACTTAGATAGCTTCACACTGAGGACGCTTTTTCGCTATCCTTTTGACCTGATTCAGGCCAGTGTGGAGTTAATGATTGTATGGATGGGCCCTACAATTTGTCTAAGACTTGGTGATAGCCTCGCGGCCGCTCGCCATTTATACAACTGAATAGCGGTTGAAACTCTCT
modifications: Symapivirus A
Molecule B8 showed an Expression of 1.27E+05.

B9: Pronghorn antelope pestivirus (nucleic acid, listed as Pestivirus sp.)
DNA: GTATACGCAGTTAGTTCATCCTGTGTATACAGATTGGAGACTCTAAAAACAACGATTCGGAATAGGGGCCCGCGGCGAAGACCGAAGACAGGCTAACCATGCCGTTAGTAGGGCTAGCACCAAAACGCGGGAACTAGACACTTAGGAGAGTGGTCTGGCTACTCTAAGAGGTGAGTACACCTTAACCGTCAAGGGTTCTACTCCTCAGTTGAGGACTAGAGATGCCCTGTGGACGGGGGCATGCCCAAGAGTTAGCTTAGCCGGGGCGGGGGTTGTTCCGGTGAAAGTAGCAATATTGACCACACTGCCTGATAGGGCGGAGCAGGCCCCCTAGGTAGTCTAGTATAAAATGTCTGCTGTACATGGCAC
B9: the Expression is listed as 1.35E+06.

B10: Aichivirus Rt386 (nucleic acid, listed as Aichivirus sp.)
DNA: ACTCCATTCAGCTTCTTCGGAACCTGTTCGGAGGAATTAAACGGGCACCCACTTTCCTGTCCTCTCCCCCTTTCTGCAACTCAAGTGTGTGCTCGTAATCCTGACTCCCACGGGTTGACCGCCCCGTTGGTGAACAAACAGCTAGGTCATTCCCTCCCTACCCCTGGGCGCCATTTCAGTGGCGTTCATATCCTCCCCCCAGCCTGACGTGTCACAGGCTGTGCAAAGTCCCCGCGAAAGCTGCTCACGTGGCAATTGTGGGTCCCCCCTTTGTGAAGGAACCGAGTCTTTCTCCCTTAAGGCTAGACCCCTGTGTGAACTCACAGGTGGCAACTAGTGGTTCCACTGCATGCTCCCGACCTCGGCCGCGGAGTGCTGTTCCCCAAGTCGTGACACTGACCTCCACTTATGTGCCTGGCAAGCATATCTGAGAAGATGTTCCGCTGTGGCTGCCAAACCTGGTAACAGGTGCCCCAGTGCGTGTAGTCTTCTTCCGTCTCCGGACGGTAAGTGTGTGGTAAAGATGCGGCGTAAGGTTCAAGTGCCAACGCCCTGGAAGGGATGACCCTTCTACTGCCCTAGGAATGCCGCGCAGGTACCCCAGGTTCGCCTGGGATCTGAGCGCGGGCTAATTGTCTACGGGTAGTTTCATTTCCCTCTCTTTTCACTGGCATC
B10: the Expression turned out to be 5.71E+07.

The values are drawn from patent US20230226096A1 (Orna Therapeutics, Inc., priority 2020, published 2023).
